The source of these data is publication doi:10.1101/2022.08.11.503658.

Common to all, as to experiment: SDS-PAGE of lysate kept at 25°C versus heated to 95°C, with immunoblot
For orientation: In western blotting, separated proteins are transferred to a membrane and probed.

The target of assay [1] is C-terminally 1xFLAG-tagged NoV GII.4 VP1 capsid protein expressed by rSA11/NSP3-2A-VP1f (human norovirus GII.4 MD145-12).
Assay [2] deals with C-terminally 6xHis-tagged NoV GII.4 VP1 capsid protein expressed by rSA11/NSP3-2A-VP1His (human norovirus GII.4 MD145-12).
In assay [3] the target is N-terminally 3xFLAG-tagged NoV GII.4 VP1 capsid protein expressed by rSA11/NSP3-2A-fVP1 (human norovirus GII.4 MD145-12).
Assay [4] deals with Rotavirus SA11 NSP3 (wild type, from rSA11/wt) (rotavirus SA11).
The target of assay [5] is Rotavirus SA11 NSP3 linked to remnant residues of the 2A peptide (rotavirus SA11 | porcine teschovirus).
Assay [6] addresses Rotavirus SA11 VP6 (rotavirus SA11).

Broadly, the stoichiometry N is a count of units in the complex or per binding partner. Turning to “C-terminally 1xFLAG-tagged NoV GII.4 VP1 capsid protein expressed by rSA11/NSP3-2A-VP1f (natural protein)”, the stoichiometry N in assay [1] worked out at 2.

As to “C-terminally 6xHis-tagged NoV GII.4 VP1 capsid protein expressed by rSA11/NSP3-2A-VP1His (natural protein)”, the stoichiometry N in assay [2] is 2.

“N-terminally 3xFLAG-tagged NoV GII.4 VP1 capsid protein expressed by rSA11/NSP3-2A-fVP1 (natural protein)” had a stoichiometry N in assay [3] of 2.

In assay [4], “Rotavirus SA11 NSP3 (wild type, from rSA11/wt) (natural protein)” yielded a stoichiometry N of 2.

For “Rotavirus SA11 NSP3 linked to remnant residues of the 2A peptide”, the stoichiometry N in assay [5] came out at 2.

As to Rotavirus SA11 VP6 (natural protein), in assay [6], the stoichiometry N was found to be 3.
